Experiments:
[1] = Proteolytic activity of papain grafted onto DAS, American Pharmacopeia method (USP XXI); type: biochemical; conditions: papain grafted onto DAS preparations of variable aldehyde titre
Description: (§1) The proteolytic activity of the product of Example 1 was determined by the American Pharmacopeia method (USP XXI). Various DAS preparations of variable aldehyde titre were used, obtained by varying the reaction times, in order to establish a comparison between the aldehyde titre, the solubility of the enzymatic preparation and the activity of this latter.

[2] = Water solubility of the supported enzyme; type: physicochemical; conditions: for WATER SOLUBILITY: papain grafted onto DAS preparations of variable aldehyde titre
Description: as §1

[3] = Release of enzyme from the polymer matrix; type: physicochemical; conditions: aqueous solution
[4] = Stability in aqueous solution (retention of enzyme activity); type: physicochemical
[5] = Stability in solid state (retention of enzyme activity); type: physicochemical

B1: DAS.2: papain grafted onto starch polyaldehyde (DAS) of aldehyde titre 5.8 x 10⁻³ meq CHO/mg and reduced with sodium borohydride (conjugate, UniProt P00784 134-345, looked up)
Papain: IPEYVDWRQKGAVTPVKNQGSCGSCWAFSAVVTIEGIIKIRTGNLNEYSEQELLDCDRRSYGCNGGYPWSALQLVAQYGIHYRNTYPYEGVQRYCRSREKGPYAAKTDGVRQVQPYNEGALLYSIANQPVSVVLEAAGKDFQLYRGGIFVGPCGNKVDHAVAAVGYGPNYILIKNSWGTGWGENGYIRIKRGTGNSYGVCGLYTSSFYPVKN
modifications: grafted onto starch polyaldehyde, borohydride-reduced
notes: papain grafted onto starch polyaldehyde (DAS) of aldehyde titre 5.8 x 10⁻³ meq CHO/mg and reduced with sodium borohydride
With B1 as the molecule, how does the “µg OF ACTIVE PAPAIN per 100 mg POLYMER” value [1] read?
The value was 900 µg per 100 mg POLYMER.

What about the water-solubility ([2]; lyophilized product) of the same molecule?
Its water-solubility is “good water-solubility”.

And the “WATER SOLUBILITY” value [2]?
The value was “YES”.

What about the “time without release of enzyme” value [3] of the same molecule?
The value was “at least six months”.

And the “time for which the activity is maintained” value [4]?
Its value is “at least six months”.

What about the “time for which the activity is maintained” value [5] of the same molecule?
Its value is “at least two years”.

B2: DAS.4: papain grafted onto starch polyaldehyde (DAS) of aldehyde titre 4.68 x 10⁻³ meq CHO/mg and reduced with sodium borohydride (conjugate, UniProt P00784 134-345, looked up)
Papain: B1 Papain
modifications: grafted onto starch polyaldehyde, borohydride-reduced
notes: papain grafted onto starch polyaldehyde (DAS) of aldehyde titre 4.68 x 10⁻³ meq CHO/mg and reduced with sodium borohydride
With B2 as the molecule, how does the “µg OF ACTIVE PAPAIN per 100 mg POLYMER” value [1] read?
The value was 500 µg per 100 mg POLYMER.

What about the “WATER SOLUBILITY” value [2] of the same molecule?
The value was “YES”.

B3: DAS.3: papain grafted onto starch polyaldehyde (DAS) of aldehyde titre 8 x 10⁻³ meq CHO/mg and reduced with sodium borohydride (conjugate, UniProt P00784 134-345, looked up)
Papain: B1 Papain
modifications: grafted onto starch polyaldehyde, borohydride-reduced
notes: papain grafted onto starch polyaldehyde (DAS) of aldehyde titre 8 x 10⁻³ meq CHO/mg and reduced with sodium borohydride
For B3, which “µg OF ACTIVE PAPAIN per 100 mg POLYMER” value [1] is on record?
The value was 200 µg per 100 mg POLYMER.

What about the “WATER SOLUBILITY” value [2] of the same molecule?
The value was “YES”.

B4: DAS.1: papain grafted onto starch polyaldehyde (DAS) of aldehyde titre 3.16 x 10⁻³ meq CHO/mg and reduced with sodium borohydride (conjugate, UniProt P00784 134-345, looked up)
Papain: B1 Papain
modifications: grafted onto starch polyaldehyde, borohydride-reduced
notes: papain grafted onto starch polyaldehyde (DAS) of aldehyde titre 3.16 x 10⁻³ meq CHO/mg and reduced with sodium borohydride
Which “µg OF ACTIVE PAPAIN per 100 mg POLYMER” value [1] does the source give for B4 here?
Its value is 800 µg per 100 mg POLYMER.

And the “WATER SOLUBILITY” value [2]?
The value was “MICELLE”.

— patent publication EP0363874A1, “Enzymes bound to a polymer matrix in water-soluble form” (Etablissement TEXCONTOR, priority 1988, dated 1990)
